According to patent US20060134087A1, “ITI-D1 Kunitz domain mutants as hNE inhibitors” (Dyax Corp., priority 1988, published 2006):

Key:
hNE [1] = molecular target: T1, hNE (Homo sapiens, UniProt P08246); assay: hNE inhibition, hydrolysis of fluorogenic substrate (Ki; standard hNE-inhibition assay); assay type: biochemical; set-up: concentration or dose not given beside the values
T1 sequence (P08246 30-267): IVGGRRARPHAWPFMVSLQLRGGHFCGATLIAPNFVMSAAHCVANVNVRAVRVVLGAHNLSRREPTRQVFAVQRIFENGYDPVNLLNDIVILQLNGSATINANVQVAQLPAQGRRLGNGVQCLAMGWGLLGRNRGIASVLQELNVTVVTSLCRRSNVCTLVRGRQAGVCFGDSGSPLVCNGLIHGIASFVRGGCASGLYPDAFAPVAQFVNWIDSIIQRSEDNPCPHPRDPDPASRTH
Experimental: Inhibition constants for the proteins reacting with hNE (Ki) were determined using RT measurements of hydrolysis of a fluorogenic substrate (N-methoxysuccinyl-Ala-Ala-Pro-Val-7-amino-4-methylcoumarin, Sigma M-9771) by hNE. For these measurements, aliquots of the appropriately diluted inhibitor stocks were added to 2 ml solutions of 0.847 nM hNE in reaction buffer (50 mM Tris-Cl, pH=8.0, 150 mM NaCl, 1 mM CaCl2, 0.25% Triton-X-100) in plastic fluorescence cuvettes. The reactions were incubated at RT for 30 minutes. At the end of the incubation period, the fluorogenic substrate was added at a concentration of 25 μM and the time course for increase in fluorescence at 470 nm (excitation at 380 nm) due to enzymatic substrate cleavage was recorded using a spectrofluorimeter (Perkin-Elmer 650-15) and strip chart recorder. […] Ki is related to Kapparent by Ki=Kapparent×(1/(1+(S0/Km))). The correction is small compared to the possible errors in Kapparent. Rates of enzymatic substrate cleavage were determined from the linear slopes of the recorded increases in fluorescence. The percent residual activity of hNE in the presence of the inhibitor was calculated as the percentage of the rate of fluorescence increase observed in the presence of the inhibitor to that observed when no added inhibitor was present.
We recorded data used to determine Ki for EPI-HNE-2 and EPI-HNE-3 reacting with hNE. Data obtained as described above are recorded as percent residual activity plotted as a function of added inhibitor. Values for Ki and for active inhibitor concentration in the stock are obtained from a least-squares fit program.

hNE [2] = molecular target: T1, hNE; assay: pH stability, residual hNE inhibitory activity; assay type: physicochemical; conditions: 37° C., 18 hours; for Percent Residual hNE Inhibitory Activity: 1 μM protein
hNE [3] = molecular target: T1, hNE; assay: Temperature stability, residual inhibitory activity for hNE; assay type: physicochemical; set-up: Residual hNE Inhibitory Activity: unit not given here; conditions: for Residual hNE Inhibitory Activity: 18 hours, pH 7.0, 1 μM protein
hNE [4] = molecular target: T1, hNE; assay: Storage stability of purified inhibitor stock solutions; assay type: physicochemical
Experimental: Residual ammonium sulfate was removed from the EPI-HNE-2 preparation by ion exchange chromatography. The solution from the ammonium sulfate precipitation step was applied to a strong cation-exchange column (50 ml bed volume Macroprep 50S) (Bio-Rad Laboratories, Inc, Hercules, Calif.) previously equilibrated with 10 mM NaCitrate, pH=3.5. After loading, the column was washed with 300 ml of 10 mM NaCitrate, pH=3.5. EPI-HNE-2 was then batch-eluted from the column with 300 ml of 50 mM NH4OAc, pH=6.2. Fractions containing EPI-HNE-2 activity were pooled and the resulting solution was lyophilized. The dried protein powder was dissolved in 50 ml dH2O and the solution was passed through a 0.2μ filter (#4192, Gelman Sciences, Ann Arbor, Mich.). The concentration of the active inhibitor in the final stock solution was determined to be 2 mM (13.5 mg/ml).
The lyophilized protein powder was dissolved in 26 ml dH2O and the solution was passed through a 0.2μ filter (#4912, Gelman Sciences, Ann Arbor, Mich.). […] EPI-HNE-3 stored in water solution (without any buffering) deteriorated when kept at 4° C.

Substance: EPI-HNE-3: ITI-D2(3-58) with R15I, I18F, Q19P, L20R; SEQ ID NO 026 (AACNLPIVRGPCIAFFPRWAFDAVKGKCVLFPYGGCQGNGNKFYSEKECREYCGVP; Epi-HNE-3)
- Percent residual hNE activity (hNE [1]; 10. μl of EPI-HNE-3 solution added): 81.6%
- Percent residual hNE activity (hNE [1]; 20. μl of EPI-HNE-3 solution added): 66.9%
- Percent residual hNE activity (hNE [1]; 30. μl of EPI-HNE-3 solution added): 53.4%
- Percent residual hNE activity (hNE [1]; 40. μl of EPI-HNE-3 solution added): 38.0%
- Percent residual hNE activity (hNE [1]; 50. μl of EPI-HNE-3 solution added): 27.6%
- Percent residual hNE activity (hNE [1]; 55. μl of EPI-HNE-3 solution added): 21.5%
- Percent residual hNE activity (hNE [1]; 60. μl of EPI-HNE-3 solution added): 13.0%
- Percent residual hNE activity (hNE [1]; 65. μl of EPI-HNE-3 solution added): 11.0%
- Percent residual hNE activity (hNE [1]; 70. μl of EPI-HNE-3 solution added): 7.9%
- Percent residual hNE activity (hNE [1]; 75. μl of EPI-HNE-3 solution added): 3.8%
- Percent residual hNE activity (hNE [1]; 80. μl of EPI-HNE-3 solution added): 3.3%
- Percent residual hNE activity (hNE [1]; 85. μl of EPI-HNE-3 solution added): 2.1%
- Percent residual hNE activity (hNE [1]; 90. μl of EPI-HNE-3 solution added): 1.8%
- Percent residual hNE activity (hNE [1]; 100. μl of EPI-HNE-3 solution added): 1.6%
- Percent residual hNE activity (hNE [1]; 110. μl of EPI-HNE-3 solution added): 0.8%
- Percent residual hNE activity (hNE [1]; 120. μl of EPI-HNE-3 solution added): 0.7%
- Percent residual hNE activity (hNE [1]; 160. μl of EPI-HNE-3 solution added): 0.6%
- Percent residual hNE activity (hNE [1]; 200. μl of EPI-HNE-3 solution added): 0.2%
- pH stability (hNE [2]; pH 1 to pH 10, 1 μM): stable when incubated at low pH, but showed some loss of activity at high pH
- Percent Residual hNE Inhibitory Activity (hNE [2]; Incubation pH 1.0): 97%
- Percent Residual hNE Inhibitory Activity (hNE [2]; Incubation pH 2.0): 97%
- Percent Residual hNE Inhibitory Activity (hNE [2]; Incubation pH 3.0): 100%
- Percent Residual hNE Inhibitory Activity (hNE [2]; Incubation pH 4.0): 102%
- Percent Residual hNE Inhibitory Activity (hNE [2]; Incubation pH 5.5): 99%
- Percent Residual hNE Inhibitory Activity (hNE [2]; Incubation pH 6.0): 103%
- Percent Residual hNE Inhibitory Activity (hNE [2]; Incubation pH 6.5): 99%
- Percent Residual hNE Inhibitory Activity (hNE [2]; Incubation pH 7.0): 103%
- Percent Residual hNE Inhibitory Activity (hNE [2]; Incubation pH 7.5): 87%
- Percent Residual hNE Inhibitory Activity (hNE [2]; Incubation pH 8.0): 84%
- Percent Residual hNE Inhibitory Activity (hNE [2]; Incubation pH 8.5): 68%
- Percent Residual hNE Inhibitory Activity (hNE [2]; Incubation pH 9.4): 44%
- Percent Residual hNE Inhibitory Activity (hNE [2]; Incubation pH 10.0): 27%
- Residual hNE Inhibitory Activity (hNE [3]; Temperature 0 ° C.): 96
- Residual hNE Inhibitory Activity (hNE [3]; Temperature 23 ° C.): 105
- Residual hNE Inhibitory Activity (hNE [3]; Temperature 37 ° C.): 99
- Residual hNE Inhibitory Activity (hNE [3]; Temperature 52 ° C.): 100
- Residual hNE Inhibitory Activity (hNE [3]; Temperature 65 ° C.): 87
- Residual hNE Inhibitory Activity (hNE [3]; Temperature 80 ° C.): 79
- Residual hNE Inhibitory Activity (hNE [3]; Temperature 93 ° C.): 57
- temperature below which full inhibitory activity is maintained (hNE [3]; thirty minutes, 1 μM, phosphate buffer pH=7): below 65 °C
- activity after storage (hNE [4]; stock solution 250 μM, −70° C., more than six months): no loss of activity
- material active after storage (hNE [4]; water solution without buffering, 4° C., five months): about 70%
